The values that follow come from US20160185837A1 (Medimmune Limited, priority 2013, published 2016).

Where two headings read alike, the source gives them in different places.

What all share (type): cell-based
Test [1] has as its target T1, human GLP-1 receptor (hGLP-1r) (Homo sapiens, UniProt P43220).
T1 construct: expressed in transfected cells
The experiment in a line: BSA-cAMP assay, cells expressing human GLP-1 receptor. To be noted: BSA-cAMP assay. The gist of the method:
(§1)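 EC50 came from an unconstrained 4-parameter logistic fit of HTRF cAMP data expressed as percent of maximal native agonist activation, tested on two occasions. Thawed receptor-expressing cells (hGLP-1r, hGIPr at 0.5×10^5 cells/ml) treated 30 min at room temperature in 0.1% BSA-containing medium; two distinct hGIPr lines.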
(In general: Cyclic AMP is a second messenger, typically raised through Gs and lowered through Gi signalling.)

For test [2], the target named is T2, human GIP receptor (hGIPr) (Homo sapiens, UniProt P48546).
T2 construct: expressed in transfected cells
T2 sequence (P48546 22-466): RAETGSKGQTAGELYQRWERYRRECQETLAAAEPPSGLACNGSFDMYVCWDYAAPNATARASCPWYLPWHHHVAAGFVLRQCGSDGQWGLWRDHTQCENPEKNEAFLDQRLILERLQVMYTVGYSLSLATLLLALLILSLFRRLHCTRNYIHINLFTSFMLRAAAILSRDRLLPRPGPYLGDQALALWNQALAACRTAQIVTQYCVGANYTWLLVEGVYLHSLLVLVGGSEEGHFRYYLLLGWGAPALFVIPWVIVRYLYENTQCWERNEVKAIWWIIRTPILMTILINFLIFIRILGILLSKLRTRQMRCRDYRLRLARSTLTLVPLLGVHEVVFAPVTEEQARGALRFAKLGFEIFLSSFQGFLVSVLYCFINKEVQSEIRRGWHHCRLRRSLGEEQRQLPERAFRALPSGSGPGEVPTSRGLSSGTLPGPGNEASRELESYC
The experiment in a line: BSA-cAMP assay, cells expressing human GIP receptor. To be noted: BSA-cAMP assay. The gist of the method: as §1

Test [3] deals with T3, human glucagon receptor (GCGr) (Homo sapiens, UniProt P47871).
T3 construct: expressed in transfected cells; host or cells: HEK293s or CHO cells
The experiment in a line: BSA-cAMP assay, cells expressing human glucagon receptor.

Test [4] has as its target T4, mouse GLP-1 receptor (mGLP-1r) (Mus musculus, UniProt O35659).
T4 construct: expressed in transfected cells; host or cells: HEK293s or CHO cells
T4 sequence (O35659 22-463): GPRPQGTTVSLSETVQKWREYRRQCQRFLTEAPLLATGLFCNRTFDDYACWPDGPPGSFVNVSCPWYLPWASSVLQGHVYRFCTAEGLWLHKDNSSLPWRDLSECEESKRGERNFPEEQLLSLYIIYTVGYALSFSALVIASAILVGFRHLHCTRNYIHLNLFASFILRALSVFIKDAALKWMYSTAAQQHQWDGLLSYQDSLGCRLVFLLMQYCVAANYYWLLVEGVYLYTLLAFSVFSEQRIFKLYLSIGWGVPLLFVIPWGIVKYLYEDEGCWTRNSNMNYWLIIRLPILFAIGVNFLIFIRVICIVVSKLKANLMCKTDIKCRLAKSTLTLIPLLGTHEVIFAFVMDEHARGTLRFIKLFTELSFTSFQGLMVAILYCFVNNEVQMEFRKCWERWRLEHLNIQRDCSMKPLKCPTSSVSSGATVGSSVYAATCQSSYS
The experiment in a line: BSA-cAMP assay, cells expressing mouse GLP-1 receptor. To be noted: BSA-cAMP assay. The gist of the method:
(§2)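 EC50 is the midpoint of an unconstrained 4-parameter logistic fit to HTRF cAMP data, expressed as percent of maximal native agonist response, from two separate occasions. Rodent (mouse, rat) GLP-1R- or GIPR-expressing cells were incubated with compound 30 min at room temperature in 0.1% BSA medium, in duplicate.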

The target in test [5] is T5, mouse GIP receptor (mGIPr) (Mus musculus, UniProt Q0P543).
T5 construct: expressed in transfected cells; host or cells: HEK293s or CHO cells
T5 sequence (Q0P543 19-460): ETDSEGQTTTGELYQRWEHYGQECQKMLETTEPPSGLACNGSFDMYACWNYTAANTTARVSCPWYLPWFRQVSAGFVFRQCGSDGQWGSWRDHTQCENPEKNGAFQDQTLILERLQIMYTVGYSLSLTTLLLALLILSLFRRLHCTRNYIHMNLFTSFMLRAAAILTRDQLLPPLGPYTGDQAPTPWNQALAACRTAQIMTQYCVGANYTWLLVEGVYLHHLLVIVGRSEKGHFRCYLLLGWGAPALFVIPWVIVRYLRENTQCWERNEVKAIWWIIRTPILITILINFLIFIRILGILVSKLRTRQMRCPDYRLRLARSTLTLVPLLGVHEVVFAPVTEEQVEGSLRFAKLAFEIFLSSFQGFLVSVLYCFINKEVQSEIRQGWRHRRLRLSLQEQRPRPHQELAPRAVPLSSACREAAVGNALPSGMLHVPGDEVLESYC
Nature of the test: BSA-cAMP assay, cells expressing mouse GIP receptor. The conditions noted are these: BSA-cAMP assay. The gist of the method: as §2

In test [6] the target is T6, rat GLP-1 receptor (rGLP-1r) (Rattus norvegicus, UniProt P32301).
T6 construct: expressed in transfected cells; host or cells: HEK293s or CHO cells
T6 sequence (P32301 22-463): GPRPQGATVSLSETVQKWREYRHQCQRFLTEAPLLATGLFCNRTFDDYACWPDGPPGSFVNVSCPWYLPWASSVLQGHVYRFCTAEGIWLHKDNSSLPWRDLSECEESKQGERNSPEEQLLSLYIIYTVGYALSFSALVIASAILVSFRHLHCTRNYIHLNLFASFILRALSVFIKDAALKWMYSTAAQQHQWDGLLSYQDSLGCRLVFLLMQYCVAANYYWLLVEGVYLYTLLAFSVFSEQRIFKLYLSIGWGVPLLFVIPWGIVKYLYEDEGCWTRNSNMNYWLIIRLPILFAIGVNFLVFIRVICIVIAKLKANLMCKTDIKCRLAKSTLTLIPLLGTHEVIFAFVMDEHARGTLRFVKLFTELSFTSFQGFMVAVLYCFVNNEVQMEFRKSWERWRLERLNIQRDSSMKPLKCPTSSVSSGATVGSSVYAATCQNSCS
Nature of the test: BSA-cAMP assay, cells expressing rat GLP-1 receptor. The conditions noted are these: BSA-cAMP assay. The gist of the method: as §2

In a further test the target is T7, rat GIP receptor (rGIPr) (Rattus norvegicus, UniProt P43219).
T7 construct: expressed in transfected cells; host or cells: HEK293s or CHO cells
T7 sequence (P43219 19-455): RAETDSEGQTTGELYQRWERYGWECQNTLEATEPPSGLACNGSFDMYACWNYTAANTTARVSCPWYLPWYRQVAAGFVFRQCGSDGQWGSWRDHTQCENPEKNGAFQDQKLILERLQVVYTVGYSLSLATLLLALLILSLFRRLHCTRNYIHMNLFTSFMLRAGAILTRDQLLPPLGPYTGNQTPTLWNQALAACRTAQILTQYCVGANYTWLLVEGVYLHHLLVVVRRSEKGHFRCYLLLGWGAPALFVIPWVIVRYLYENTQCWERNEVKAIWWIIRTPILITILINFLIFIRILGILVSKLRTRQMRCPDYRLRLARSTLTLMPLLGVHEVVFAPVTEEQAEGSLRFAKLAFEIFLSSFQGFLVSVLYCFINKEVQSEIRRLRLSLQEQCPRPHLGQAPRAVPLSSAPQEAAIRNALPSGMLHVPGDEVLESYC
Nature of the test: BSA-cAMP assay, cells expressing rat GIP receptor. To be noted: BSA-cAMP assay. The gist of the method: as §2

The next test concerns the target T8, hGIPr (C3) (Homo sapiens, UniProt P48546).
T8 construct: expressed in transfected cells
T8 sequence (P48546 22-466): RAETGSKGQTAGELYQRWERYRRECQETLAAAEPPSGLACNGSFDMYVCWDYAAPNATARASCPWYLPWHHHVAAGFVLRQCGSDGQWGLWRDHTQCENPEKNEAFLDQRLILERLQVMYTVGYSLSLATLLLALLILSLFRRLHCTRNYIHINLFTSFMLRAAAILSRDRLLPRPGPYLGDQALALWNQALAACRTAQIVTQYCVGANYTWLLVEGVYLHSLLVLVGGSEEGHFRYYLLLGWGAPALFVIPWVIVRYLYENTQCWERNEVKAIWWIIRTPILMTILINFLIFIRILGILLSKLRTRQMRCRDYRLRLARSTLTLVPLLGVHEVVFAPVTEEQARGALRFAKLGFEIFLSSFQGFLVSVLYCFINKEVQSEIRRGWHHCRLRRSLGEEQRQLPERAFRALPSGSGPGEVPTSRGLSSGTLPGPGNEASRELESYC
The experiment in a line: BSA-cAMP assay, second human GIPr cell line hGIPr (C3). The conditions noted are these: second human GIPr cell line, STDEV or N in the line below, read-out: cAMP activity hGIPr (C3) (EC50). Here is the method:
For human GIPr, two different lines were used, shown as “hGIPr” and “hGIPr (C3)” in Table 11. Peptide activation of these various receptors results in downstream production of cAMP second messenger that can be measured in a functional activity assay.
One basic cAMP assays was performed, differing in the medium used for the assay, the “BSA-cAMP assay”:
BSA-based assay medium: 0.1% bovine serum albumin (BSA) in
Hanks Balanced Salt Solution (GIBCO or Sigma), containing 0.5 mM IBMX (Sigma #17018);
In certain aspects, the assay can also be carried out in medium supplemented with serum albumin that corresponds to the receptor being tested, e.g., human serum albumin for testing cAMP activity at hGIPr or hGLP-1r, rat serum albumin for testing cAMP activity at rGIPr or rGLP-1r, and so on. […]
cAMP levels were measured using a commercially available cAMP dynamic 2 HTRF kit (Cisbio, Cat #62AM4PEJ), following the two step protocol as per manufacturer's recommendations. […] Plates were incubated at room temperature for one hour and then read on an Envision (Perkin Elmer) using excitation wavelength of 320 nm and emission wavelengths of 620 nm & 665 nm. Data was transformed to % Delta F as described in manufacturer's guidelines and then transformed to percent activation of maximal native agonist response and analysed by 4-parameter logistic fit to determine EC50 values. […]

[7] abbreviates: batch 1 unless a batch is given, read-out: cAMP activity hGLP1r (EC50).
Where [8] appears, read: batch 1 unless a batch is given, read-out: cAMP activity hGIPr (EC50).
The mark [9] stands for this setting: batch 1 unless a batch is given, read-out: cAMP activity hGCGr (EC50).
Where [10] appears, read: read-out: cAMP activity mGLP1r (EC50).
The mark [11] stands for this setting: read-out: cAMP activity mGIPr (EC50).
The mark [12] stands for this setting: read-out: cAMP activity rGLP1r (EC50).
[13] abbreviates: read-out: cAMP activity rGIPr (EC50).
[14] abbreviates: Batch 1, read-out: hGLP1r cAMP activity EC50.
[15] abbreviates: Batch 1, read-out: hGIPr cAMP activity EC50.
[16] abbreviates: Batch 1, read-out: hGCGr cAMP activity EC50.
Where [17] appears, read: Batch 1, read-out: mGLP1r cAMP activity EC50.
The mark [18] stands for this setting: Batch 1, read-out: mGIPr cAMP activity EC50.
The mark [19] stands for this setting: Batch 1, read-out: rGLP1r cAMP activity EC50.
The mark [20] stands for this setting: Batch 1, read-out: rGIPr cAMP activity EC50.

T1 sequence (P43220 24-463): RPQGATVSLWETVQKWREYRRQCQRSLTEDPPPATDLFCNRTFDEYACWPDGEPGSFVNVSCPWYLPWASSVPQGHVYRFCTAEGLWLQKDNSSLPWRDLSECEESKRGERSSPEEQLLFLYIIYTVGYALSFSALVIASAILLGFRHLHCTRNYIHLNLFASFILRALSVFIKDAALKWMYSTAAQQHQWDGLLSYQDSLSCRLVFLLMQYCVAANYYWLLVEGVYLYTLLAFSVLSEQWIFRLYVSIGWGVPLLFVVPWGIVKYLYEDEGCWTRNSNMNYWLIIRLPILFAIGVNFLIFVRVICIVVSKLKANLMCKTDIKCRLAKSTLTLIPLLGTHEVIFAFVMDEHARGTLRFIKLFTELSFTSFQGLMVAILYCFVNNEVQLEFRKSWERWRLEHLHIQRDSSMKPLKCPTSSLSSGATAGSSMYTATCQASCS
T3 sequence (P47871 26-477): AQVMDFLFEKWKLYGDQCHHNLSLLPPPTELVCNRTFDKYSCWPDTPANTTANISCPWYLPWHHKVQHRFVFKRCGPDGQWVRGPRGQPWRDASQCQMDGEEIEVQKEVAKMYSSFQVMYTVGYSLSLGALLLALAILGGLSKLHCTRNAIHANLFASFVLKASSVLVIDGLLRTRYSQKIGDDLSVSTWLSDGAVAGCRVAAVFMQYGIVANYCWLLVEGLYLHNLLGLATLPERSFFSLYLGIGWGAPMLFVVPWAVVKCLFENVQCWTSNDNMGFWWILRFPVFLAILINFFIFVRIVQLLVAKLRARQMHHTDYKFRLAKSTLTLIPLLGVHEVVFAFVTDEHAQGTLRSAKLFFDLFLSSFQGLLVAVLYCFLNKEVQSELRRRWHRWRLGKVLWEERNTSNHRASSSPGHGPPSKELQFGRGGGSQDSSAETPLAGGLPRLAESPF

B1: IP246: Fc fusion, IgG1-TM, SEQ ID NO:116; agonist peptide YSEGTFTSDYSKLLEGQAAKLFIEWLVKGP (protein)
chain: YSEGTFTSDYSKLLEGQAAKLFIEWLVKGPAAAGGSGSTASSGSGSATGGGGAATHTCPPCPAPEF
modifications: also: Fc fusion, IgG1-TM
notes: agonist peptide YSEGTFTSDYSKLLEGQAAKLFIEWLVKGP
What is called EC50 is the concentration at which the effect is half-maximal. Regarding B1, the EC50 was 0.65 nM in test [1] (setting [7]); 2.2 nM in test [2] (setting [8]); greater than 1400 nM in test [3] (setting [9]); 3.2 nM in test [4] (setting [10]); 260 nM in test [5] (setting [11]); 0.072 nM in test [6] (setting [12]). The EC50 with rat GIP receptor (rGIPr) (setting [13]) was 10000 pM.

B2: IP247: Fc fusion, IgG1-TM, SEQ ID NO:117; agonist peptide YSEGTFTSDYSKLLEKIHQQLFIEWLVKGP (protein)
chain: YSEGTFTSDYSKLLEKIHQQLFIEWLVKGPAAAGGSGSTASSGSGSATGGGGAATHTCPPCPAPEF
modifications: also: Fc fusion, IgG1-TM
notes: agonist peptide YSEGTFTSDYSKLLEKIHQQLFIEWLVKGP
Take B2: the EC50 was 63 nM in test [1] (setting [7]); 0.019 nM in test [2] (setting [8]); greater than 420 nM in test [3] (setting [9]); 280 nM in test [4] (setting [10]); 2.3 nM in test [5] (setting [11]); 11 nM in test [6] (setting [12]). The EC50 with rat GIP receptor (rGIPr) (setting [13]) was determined as 30 pM.

B3: IP321 (protein)
chain: YSEGTFISDYSIAMDKIHQQDFVNWLLAGGAAAGGSGSTASSGSGSATGGGGAATHTCPPC
As for B3, the EC50 in test [1] (setting [14]) is 72 nM; in test [2] (setting [15]) it was 0.0096 nM; in test [3] (setting [16]) it was 24 nM; in test [4] (setting [17]), 330 nM; in test [5] (setting [18]), 0.017 nM; in test [6] (setting [19]) it was 22 nM. The EC50 with rat GIP receptor (rGIPr) (setting [20]) is 7.9 pM.

B4: IP018 (protein)
chain: YSEGTFISDYSIAMDKIHQQDFVNWLLAQKAAAGGSGSTASSGSGSATGGGGAATHTCPPCPAPEF
modifications: /note=“Description of Artificial Sequence Synthetic Peptide-linker-hinge polypeptide”
B4: the concentration giving a half-maximal response (EC50) with hGIPr (C3) came out at 0.8 nM; in the test with rat GIP receptor (rGIPr) (setting [13]), 7.6 pM.

B5: IP351 (protein)
chain: YSEGTFISDYSIAMDKIHQQDFVNWLLAQKPSSGAPPPSGGGGSGGGGSGGGGSGGGGSACPPC
For B5, the EC50 in test [1] (setting [14]) turned out to be 110 nM; in test [2] (setting [15]), 0.0036 nM; in test [3] (setting [16]), 130 nM; in test [4] (setting [17]), 820 nM; in test [5] (setting [18]), 0.0098 nM; in test [6] (setting [19]), 210 nM. Moreover, the concentration giving a half-maximal response (EC50) with rat GIP receptor (rGIPr) (setting [20]) stood at 6.3 pM.
